# Measured values reported in patent US20210115087A1 (UNIVERSITY OF ROCHESTER, published 2021).
# *1 amine or outer side, *2 acyl side, *3 side chain or, on linkers, in order; H or OH if unused. Bridges are numbered along the chain shown (N, C = ends). Where no end group is shown, it is not given here. [ ]: non-standard residue; d: D form. The star is where a group is joined. O2beY = O-alkylated Tyr from O-2-bromoethyl-tyrosine, O-CH2CH2- thioether-linked to Cys, O=C([C@H](Cc1ccc(OCC[*:3])cc1)N[*:1])[*:2]; L‑5 = linker -CH2S(CH2)2SCH2-, C(CSC[*:2])SC[*:1]; Biotin = O=C1N[C@H]2[C@H](CS[C@H]2CCCCC(=O)*)N1; L‑9 = linker -CH2SCH2CH=CHCH2SCH2-; L‑6 = linker -CH2S(CH2)3SCH2-; L‑4 = linker -CH2SCH2SCH2-
# Key:
# [1] = biological target: T1, GST-Shh (recombinant GST-fused human Sonic Hedgehog) (human, UniProt Q15465 24-197); assay: plate assay: immobilized GST-Shh, biotinylated peptide, HRP-streptavidin
# T1 construct: Expressed in E. coli BL21(DE3), Ni-NTA purified, immobilized on microtiter plates; also called GST-fused Shh; not shown: glutathione-S-transferase (GST) containing a poly-histidine tag, from expression vector pET42b (Novagen); N-terminal fus
# Method: (§1) Hh protein binding assay. Shh binding activity/affinity of the linear and cyclic peptides was measured using the immunoassay outlined in FIG. 4. For these experiments, GST-Shh was immobilized on 96-well microtiter plates (100 μL of 4 μM GST-Shh solution in PBS buffer), followed by blocking with bovine serum albumin. After washing, each well was incubated with 100 μL of purified FLAG-fused peptide at varying concentrations for 1 hour at room temperature. After washing, each well was added with 100 μL of 1:2500 dilution of HRP-conjugate mouse anti-FLAG polyclonal antibody (Sigma-Aldrich) for 1 hour at room temperature. After washing, 100 μL of 2.2 mM o-phenylenediamine dihydrochloride, 4.2 mM urea hydrogen peroxide, 100 mM dibasic sodium phosphate and 50 mM sodium citrate, pH 5.0 was added to each well, followed by measurement of the absorbance at 450 nm using a Tecan Infinite 1000 plate reader. Equilibrium dissociation constants (KD) were determined by fitting the dose-response curves (FIG. 5) to a 1:1 binding isotherm equation via non-linear regression using SigmaPlot.
# For assessing the Shh binding affinity of the cysteine-crosslinked peptides described in Example 4, biotinylated variants of these peptides were prepared by introducing a biotin moiety to the N-terminal peptide of the peptide followed by a tetrapeptide (Gly-Ser-Gly-Ser) (SEQ ID NO: 72) spacer (i.e., peptides Biot-m5-s1 through Biot-m5-s10). The biotinylated peptides were tested in a modified variant of the Shh binding assay described in Example 1, where HRP-conjugated streptavidin is used instead of the HRP-conjugated anti-FLAG antibody.
# [2] = biological target: T1, GST-Shh (recombinant GST-fused human …); assay: plate immunoassay: immobilized GST-Shh, FLAG-tagged peptide titrated, HRP anti-FLAG antibody, A450
# Method: To measure the binding affinity of the peptides for Shh, an in vitro assay was established in which recombinant GST-fused Shh is immobilized on microtiter plates and then exposed to the FLAG-tagged peptide at varying concentrations. The Shh-bound peptide is then quantified colorimetrically (λ₄₅₀) using a horseradish peroxidase (HRP)-conjugated anti-FLAG antibody.
# as §1, with “After washing, each well was added with 100 μL of 1:2500 dilution of HRP-conjugate mouse anti-FLAG polyclonal antibody (Sigma-Aldrich) for 1 hour at room temperature.” left out
# [3] = biological target: T1, GST-Shh (recombinant GST-fused human …); assay: plate immunoassay: immobilized GST-Shh, purified FLAG-tagged peptide titrated, HRP anti-FLAG antibody
# Method: as §1
# (§2) Next, all of the yet unmodified positions within the HL2-m3 sequence (relative to HL2-m1) were randomized by site-saturation mutagenesis. These positions correspond to residue Thr1, Leu2, Asp3, Glu6, Glu7, Met8, Asp12 of the HL2-m3 sequence. […]
# [4] = biological target: T2, GST-Dhh (recombinant GST-fused human Desert Hedgehog) (human, UniProt O43323 23-198); assay: plate immunoassay: immobilized GST-Dhh against GST-Shh, HRP anti-FLAG antibody
# T2 construct: not shown: glutathione-S-transferase (GST) containing a poly-histidine tag, from expression vector pET42b (Novagen); N-terminal fus
# Method: as §1
# Hedgehog analog selectivity. KD values for FLAG-HL2-m5 binding to Ihh and Dhh were determined using the colorimetric immunoassay described earlier but using GST-Ihh and GST-Dhh-coated plates, respectively. […] Mean values and standard deviations were calculated from experiments performed at least in triplicate.
# [5] = biological target: T1, GST-Shh (recombinant GST-fused human …); assay: plate immunoassay: immobilized GST-Shh, HRP anti-FLAG antibody
# Method: as §1, §2
binder,measurement,setting,value
Biotin-GSGSTLSWCEAMDMCTD-NH2 (linker 9-15 via L‑4) [Biot-m5-s2],Kd,[1],3.4 µM
Biotin-GSGSTLSWCEAMDMCTD-NH2 (linker 9-15 via L‑9) [BIOT-M5-S5 (as labelled in the KD table of Example 5)],Kd,[1],1.1 µM
Biotin-GSGSTLSWCEAMDMCTD-NH2 (linker 9-15 via L‑6) [Biot-m5-s4],Kd,[1],6.4 µM
Biotin-GSGSTLSWCEAMDMCTD-NH2 (linker 9-15 via L‑5) [Biot-m5-s3],Kd,[1],5.9 µM
MDYKDDDDKGSGSTLDDMEEMDGLSD (also called linear L2-derived peptide) [FLAG-HL2-pep],Kd,[2],20 µM
"GSGSTLSWCEAMDMCTD (N-terminal biotin; Cys5 and Cys11 crosslinked, by the printed MW 2121.41 with one of the isomeric linkers L-10, L-11, L-12 (drawings; probably L-11); C-terminal amide, it fits the xylene-type linkers) [BIOT-M5-S7 (as labelled in the KD table of Example 5)]",Kd,[1],9.2 µM
Biotin-GSGSTLSWCEAMDMCTD-NH2 (disulfide 9-15) [Biot-m5-s1],Kd,[1],1.7 µM
MDYKDDDDKGSGSTLSW[O2beY]EAMDMCTD-OH (bridge 18-24; not fully specified (bridges)) [FLAG-HL2-m5],Kd,[3],0.17 µM
same,fold lower affinity than for Shh,[4],2 fold
same,fold higher binding affinity for Shh compared to FLAG-HL2-pep,[5],~120 fold
